Reference: US20100068742
Entries after “also recorded” stand apart in the source; their conditions may differ.

Assays:
[1] = test system: T1, LRRKtide peptide (RLGRDKYKTLRQIRQ)
T1 sequence: RLGRDKYKTLRQIRQ

[2] = test system: LRRKtide with +1Leu mutated to Ala
[3] = test system: LRRKtide with +2Arg mutated to Ala
[4] = test system: LRRKtide with +5Arg mutated to Ala
[5] = test system: LRRKtide with -2Tyr mutated to Ala
[6] = test system: LRRKtide with -2Tyr mutated to Arg
[7] = test system: LRRKtide with -2Tyr mutated to Glu
[8] = test system: LRRKtide with -4 (Asp) mutated to Ala
[9] = test system: LRRKtide with -5Arg mutated to Ala
[10] = test system: LRRKtide with the +2 residue mutated to Glu
[11] = test system: LRRKtide with the +2 residue mutated to Pro
[12] = test system: LRRKtide with the +5 residue mutated to Glu
[13] = test system: LRRKtide with the +5 residue mutated to Pro
[14] = test system: T2, Nictide (RLGWWRFYTLRRARQGNTKQR)
T2 sequence: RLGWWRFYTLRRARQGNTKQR

[15] = test system: Nictide peptides with combined -5, -4 and -1 mutations
[16] = test system: Nictide with +1Leu mutated to Pro
[17] = test system: Nictide with +2 Arg mutated to Ala
[18] = test system: Nictide with -1 Tyr mutated to Ala
[19] = test system: Nictide with -4Trp mutated to Ala
[20] = test system: Nictide with -5Trp mutated to Ala
[21] = test system: Nictide with Thr introduced at the +2 position
[22] = test system: Nictide with Thr introduced at the -2 position
[23] = test system: Nictide with Thr residues at both the -2 and +2 positions
[24] = test system: Nictide with the phosphorylated Thr mutated to Ser

## GST-LRRK2 1326-2527 [G2019S]
GST-Nictide
  phosphorylation of GST fusion proteins (32P autoradiography): phosphorylated to a significantly greater extent by LRRK2 than the other GST-fusion proteins
[1]
  Km of peptide phosphorylation: Km of 200 µM
  Vmax of peptide phosphorylation: Vmax of 14 U/mg
[2]
  fold decrease of Vmax against wild type LRRKtide: +1Leu (2-fold)
  peptide phosphorylation: had no effect on LRRK2 phosphorylation
[3]
  fold decrease of Vmax against wild type LRRKtide: +2 Arg (4 to 28-fold)
  fold increase of Km against wild type LRRKtide: +2Arg (4.5-fold)
[4]
  fold increase of Km against wild type LRRKtide: +5Arg (4-fold)
[5]
  fold decrease of Vmax against wild type LRRKtide: -2 Tyr (2 to 10-fold)
  fold increase of Km against wild type LRRKtide: -2Tyr (2.4-fold)
[6]
  Km against wild type LRRKtide: slightly decreased Km
  fold decrease of Vmax against wild type LRRKtide: -2 Tyr (2 to 10-fold)
[7]
  fold decrease of Vmax against wild type LRRKtide: -2 Tyr (2 to 10-fold)
  fold increase of Km against wild type LRRKtide: increased Km 4.4-fold
[8]
  fold decrease of Km against wild type LRRKtide: decreasing Km 2.3-fold
[9]
  fold increase of Km against wild type LRRKtide: -5Arg (2.5 fold)
[10]
  Km against wild type LRRKtide: increased Km similarly to the Ala mutation
  fold decrease of Vmax against wild type LRRKtide: +2 Arg (4 to 28-fold)
[11]
  Km against wild type LRRKtide: increased Km similarly to the Ala mutation
  fold decrease of Vmax against wild type LRRKtide: +2 Arg (4 to 28-fold)
[12]
  Km against wild type LRRKtide: increased Km similarly to the Ala mutation
  fold decrease of Vmax against wild type LRRKtide: +5 Arg (mutation to Glu 4-fold)
[13]
  Km against wild type LRRKtide: increased Km similarly to the Ala mutation
[14]
  Km of peptide phosphorylation: Calculated Km values are 6micromolar for Nictide; also recorded: Km of 10 µM
  Vmax of peptide phosphorylation: Vmax of 26 U/mg
  fold decrease of Km against LRRKtide: 20-fold lower than LRRKtide
  fold increase of Vmax against LRRKtide: 1.7-fold higher than LRRKtide
[15]
  fold increase of Km against Nictide: the Km values were substantially increased 5 to 20-fold compared to Nictide
[16]
  Km against Nictide: without affecting Km
  fold decrease of Vmax against Nictide: only decreased Vmax of LRRK2 phosphorylation under 2-fold
[17]
  fold decrease of Vmax against Nictide: decreased the Vmax value of phosphorylation 2 to 5-fold
[18]
  fold increase of Km against Nictide: increased Km values 2 to 3-fold
  fold increase of Vmax against Nictide: enhanced Vmax of LRRK2 phosphorylation ~2-fold
[19]
  fold decrease of Vmax against Nictide: decreased the Vmax value of phosphorylation 2 to 5-fold
  fold increase of Km against Nictide: increased Km values 2 to 3-fold
  fold increase of Vmax against Nictide: enhanced Vmax of LRRK2 phosphorylation ~2-fold
[20]
  fold increase of Km against Nictide: increasing the Km value 3-fold
  fold increase of Vmax against Nictide: enhanced Vmax of LRRK2 phosphorylation ~2-fold
[21]
  Km and Vmax against Nictide: moderately increased the Km and reduced the Vmax value
[22]
  Km and Vmax against Nictide: moderately increased the Km and reduced the Vmax value
[23]
  fold increase of Km against Nictide: increased Km value of over 10-fold
[24]
  peptide phosphorylation: almost abolished phosphorylation of the peptide by LRRK2
